{"source": "patent US20240254220A1", "about": "“COMBINED THERAPY USING ANTI-CD300C ANTIBODY” (CentricsBio, Inc., priority 2021, published 2024)", "target": "T1, CD300c antigen (Homo sapiens, UniProt Q08708)", "T1 construct": "purchased Sino Biological 11832-H08H", "T1 sequence (Q08708 21-183)": "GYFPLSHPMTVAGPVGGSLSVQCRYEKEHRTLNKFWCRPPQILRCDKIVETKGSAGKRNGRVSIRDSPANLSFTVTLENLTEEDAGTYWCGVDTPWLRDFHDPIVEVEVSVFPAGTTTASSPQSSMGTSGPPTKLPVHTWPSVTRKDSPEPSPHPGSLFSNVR", "assay": "Binding ELISA of anti-CD300c monoclonal antibodies to CD300c antigen", "details": "CD300c antigen coated at 8 μg/mL, absorbance 450 nm", "method": "In order to identify the antigen-binding ability of the anti-CD300c monoclonal antibodies produced in Example 1, binding ELISA was performed. Specifically, a CD300c antigen (11832-H08H, Sino Biological) or a CD300a antigen (12449-H08H, Sino Biological) in a coating buffer (0.1 M sodium carbonate, pH 9.0) was dispensed into an ELISA plate at a concentration of 8 μg/mL per well, followed by incubation at room temperature for 3 hours to allow the antigen to be bound to the plate. The unbound antigens were removed by washing three times using phosphate buffered saline-Tween 20 (PBST), and then 300 μL of PBST supplemented with 5% bovine serum albumin (BSA) was added to each well, followed by incubation at room temperature for 1 hour and then washing using PBST. Then, an anti-CD300c monoclonal antibody was diluted in quadruplicate and added thereto, followed by incubation for 1 hour at room temperature for antigen binding. After 1 hour, washing was performed three times using PBST to remove unbound anti-CD300c monoclonal antibody, and then 4 μg/mL of an antibody for detection (HRP conjugated anti-Fc IgG) was added, followed by incubation again at room temperature for 1 hour. […] Then, 2 N sulfuric acid solution was added to terminate the development reaction, and the absorbance was measured at 450 nm to identify the antibodies specifically binding to the CD300c antigen.", "data": [{"molecule": "CL8: anti-CD300c monoclonal antibody, VH3VL1 phage library, VH SEQ ID 331, VL SEQ ID 332 (antibody, V domains shown, CL8 Heavy Chain Variable Region; CL8 Light Chain Variable Region) VH: EVQLLESGGGLVQPGGSLRLSCAASGFTFSSYAMSWVRQAPGKGLEWVSAISGSGGSTYYADSVKGRFTISRNNSKNTLYLQMNSLRAEDTAVYYCARSGRYADLTSGGQGTLVTVSS VL: QSVLTQPPSASGTPGQRVTISCSGSNSNIGNNYVSWYQQLPDTPPKLLIYDNNKRPSGVPDRFSGSKSGTSASLAISGLRSEDEADYYCSSYTSSSTVMFGGGTKLTVL", "values": [{"measurement": "EC50", "result": 49.7, "unit": "µg/mL"}]}]}
